Results from publication doi:10.1101/2022.06.18.496527 (2022).

Biological target: AVR-Pii effector domain (residues 20 to 70), purified (Magnaporthe oryzae)
Assay: ITC

B1: OsExo70F2^Δ83 (residues 84 to 689) (domain or fragment)
chain: ISAAAFDAAEQLIQVWDGTPEALVFEATEDEVAEYLSAVDVAIEHLARGSGGGAGGAGSSSSSTAGRAGVAVQLAMARLEEELRHLMVRHAVPLDPTGLFFSLRRLSLGSMDDLDTSSEFDAATPHSIDVAPETARGGPLVNPFEDQVFDPVRPEAVDDLRAIADRMARAGYSRELADAYCGIRRDLLDEYLSALGVERLSIDEVQRIEWKHLNDKMKKWVQAVKTVVRVLLAGERRLCDQVLSVSDELREECFIESTKGCIMQILSFGDAVAVCPRSPEKLSRILDMYEALAEVIPEMKDLCLGSSGDGVISDVQANLDRLGDAIRGTLFEFGKVLQLESSRRAMTAGEIHPMTRYVMNYLRLLVVYSDTLDALLDDNADDQIDLARAEDQDQEHLESMTPLGKRLLKLISYLEANLEEKSKLYEDSALECIFSMNNLLYIVQKVRDSELGKILGDHWVKRRNGKIRQYSKSYLRISWMKVLSFLKDDGHGSGSGSSSGSGSGHSSSRMSIKEKFKNFNLAFEEIYRNQTTWKVPDPQLREELKISISENVIPAYRAFLGRYGSQVDGGRNSGKYIKYTPEDLESQLSDLFEGAPGPANHSRRRT
For B1, the Kd was < 1 nM.
